Experimental data published in PMC5699643 (Nature microbiology, 2017).

B1: RsaA(249-1026), the N-terminally cleaved RsaA in the crystals (domain or fragment)
chain: GSTLSLTTGTDTLTGTANNDTFVAGEVAGAATLTVGDTLSGGAGTDVLNWVQAAAVTALPTGVTISGIETMNVTSGAAITLNTSSGVTGLTALNTNTSGAAQTVTAGAGQNLTATTAAQAANNVAVDGGANVTVASTGVTSGTTTVGANSAASGTVSVSVANSSTTTTGAIAVTGGTAVTVAQTAGNAVNTTLTQADVTVTGNSSTTAVTVTQTAAATAGATVAGRVNGAVTITDSAAASATTAGKIATVTLGSFGAATIDSSALTTVNLSGTGTSLGIGRGALTATPTANTLTLNVNGLTTTGAITDSEAAADDGFTTINIAGSTASSTIASLVAADATTLNISGDARVTITSHTAAALTGITVTNSVGATLGAELATGLVFTGGAGADSILLGATTKAIVMGAGDDTVTVSSATLGAGGSVNGGDGTDVLVANVNGSSFSADPAFGGFETLRVAGAAAQGSHNANGFTALQLGATAGATTFTNVAVNVGLTVLAAPTGTTTVTLANATGTSDVFNLTLSSSAALAAGTVALAGVETVNIAATDTNTTAHVDTLTLQATSAKSIVVTGNAGLNLTNTGNTAVTSFDASAVTGTGSAVTFVSANTTVGEVVTIRGGAGADSLTGSATANDTIIGGAGADTLVYTGGTDTFTGGTGADIFDINAIGTSTAFVTITDAAVGDKLDLVGISTNGAIADGAFGAAVTLGAAATLAQYLDAAAAGDGSGTSVAKWFQFGGDTYVVVDSSAGATFVSGADAVIKLTGLVTLTTSAFATEVLTLA
B2: RsaA, S-layer protein of Caulobacter crescentus CB15N (NA1000), full length, purified (natural protein)
chain: MAYTTAQLVTAYTNANLGKAPDAATTLTLDAYATQTQTGGLSDAAALTNTLKLVNSTTAVAIQTYQFFTGVAPSAAGLDFLVDSTTNTNDLNDAYYSKFAQENRFINFSINLATGAGAGATAFAAAYTGVSYAQTVATAYDKIIGNAVATAAGVDVAAAVAFLSRQANIDYLTAFVRANTPFTAAADIDLAVKAALIGTILNAATVSGIGGYATATAAMINDLSDGALSTDNAAGVNLFTAYPSSGVSGSTLSLTTGTDTLTGTANNDTFVAGEVAGAATLTVGDTLSGGAGTDVLNWVQAAAVTALPTGVTISGIETMNVTSGAAITLNTSSGVTGLTALNTNTSGAAQTVTAGAGQNLTATTAAQAANNVAVDGGANVTVASTGVTSGTTTVGANSAASGTVSVSVANSSTTTTGAIAVTGGTAVTVAQTAGNAVNTTLTQADVTVTGNSSTTAVTVTQTAAATAGATVAGRVNGAVTITDSAAASATTAGKIATVTLGSFGAATIDSSALTTVNLSGTGTSLGIGRGALTATPTANTLTLNVNGLTTTGAITDSEAAADDGFTTINIAGSTASSTIASLVAADATTLNISGDARVTITSHTAAALTGITVTNSVGATLGAELATGLVFTGGAGADSILLGATTKAIVMGAGDDTVTVSSATLGAGGSVNGGDGTDVLVANVNGSSFSADPAFGGFETLRVAGAAAQGSHNANGFTALQLGATAGATTFTNVAVNVGLTVLAAPTGTTTVTLANATGTSDVFNLTLSSSAALAAGTVALAGVETVNIAATDTNTTAHVDTLTLQATSAKSIVVTGNAGLNLTNTGNTAVTSFDASAVTGTGSAVTFVSANTTVGEVVTIRGGAGADSLTGSATANDTIIGGAGADTLVYTGGTDTFTGGTGADIFDINAIGTSTAFVTITDAAVGDKLDLVGISTNGAIADGAFGAAVTLGAAATLAQYLDAAAAGDGSGTSVAKWFQFGGDTYVVVDSSAGATFVSGADAVIKLTGLVTLTTSAFATEVLTLA

Tests used:
[1] = biological target: the molecule itself; test: crystal structure
[2] = biological target: the molecule itself; test: in vitro reconstitution of S-layer sheets, seen by cryo-EM and cryo-ET

Protein | stoichiometry N [1] | binding result [2]
B1 | 6 | –
B2 | – | binds
